From article doi:10.1101/2020.06.17.153486 (bioRxiv, 2020) come the findings set out here.

The target in the assay is SARS-CoV-2 RBD fused with SD1 (SARS-CoV-2, Wuhan-Hu-1 type, UniProt P0DTC2). The assay is described as follows: ELISA.

B1: mAb 2-4 (antibody, V domains shown)
VH: QVQLVQSGAEVKKPGASVKVSCKASGYTFTGYYMHWVRQAPGQGLEWMGWINPNSGGTNYTQMFQGRVTMTRDTSISTAYMEVSRLRSDDTAVYYCARDRSWAVVYYYMDVWGKGTTVTVSS
VL: QSALTQPPSASGSPGQSVTISCTGTSSDVGGYNYVSWYQQHPGKAPKLMIYEVSKRPSGVPDRFSGSKSGNTASLTVSGLQAEDEADYYCSSYAGSNNLVFGGGTKLTVL
For B1, the binding result was “binds”.
